How the values were obtained:
[1] = test system: EGFP Reporter HEK293T cells; assay: Cre-loxP recombination in EGFP Reporter HEK293T cells, % EGFP+ by flow cytometry normalized to Cre groups; format: cell-based; settings: Dark, Ambient, Light (5 W/m^2, 7.5 s per min, 24 h); n=5
Excerpt: FIG. 2A is a schematic representation of the EGFP Reporter genetic construct before and after Cre-loxP recombination; the hEF1α promoter drives mCherry expression.
FIG. 3E graphically illustrates the number of recombined cells after recombination in TamPA-Cre-nH1^+ EGFP Reporter HEK293T cells subjected (Light) or not (Ambient, Dark) to Protocol B (n=3) of FIG. 3C; reporter is untransfected EGFP Reporter HEK293T cell line (n=3), blue light stimulation started and flow cytometry measurements taken 24 h and 72 h post-transfection, respectively; percentage of recombined HEK293T cells (normalized to maximal recombination)=100%*(% of EGFP^+ cells)/(mean % of EGFP^+ cells in corresponding Cre groups). […]
To compare the two photoactivatable split-Cre systems, EGFP Reporter HEK293T cells were or were not (Reporter) transiently transfected with either PA-Cre-C, PA-Cre-M, or Cre constructs (Fig. S1A-D). […] The percentage of EGFP^+ recombined cells in each cell group was determined by flow cytometry 24 h later. […]

[2] = test system: CD38+ Toledo Target cells; assay: Activation of myc-α-CD38 Receptor Jurkat T cells upon binding to CD38+ Toledo Target cells; format: cell-based; settings: Jurkat T cells stably expressing the receptor
Excerpt: FIG. 12D graphically illustrates representative histograms from flow cytometry showing that α-CD19-CAR-EGFP^+ Jurkat T cells both (I) bind to and (II) are activated by CD19^+ Toledo Target cells, while myc-α-CD38-Receptor^+ Jurkat T cells (III) bind to but (IV) are not activated by CD38^+ Toledo Target cells;
The TamPA-Cre system was next applied to induce CAR expression in the physiologically relevant Jurkat T cell line. […] Likewise, Jurkat T cells stably expressing myc-α-CD38 Receptor were not activated upon binding to CD38^+ Toledo Target cells, as expected (Fig. S6D).

B1: NLS-pMag-CreC: nucleus-localized C-terminal split-Cre protein half, SEQ ID NO: 1 (protein)
chain: PKKKRKVGGHTLYAPGGYDIMGYLRQIRNRPNPQVELGPVDTSCALILCDLKQKDTPIVYASEAFLYMTGYSNAEVLGRNCRFLQSPDGMVKPKSTRKYVDSNTINTMRKAIDRNAEVQVEVVNFKKNGQRFVNFLTMIPVRDETGEYRYSMGFQCETEGTNRKWFPAEPEDVRDYLLYLQARGLAVKTIQQHLGQLNMLHRRSGLPRPSDSNAVSLVMRRIRKENVDAGERAKQALAFERTDFDQVRSLMENSDRCQDIRNLAFLGIAYNTLLRIAEIARIRVKDISRTDGGRMLIHIGRTKTLVSTAGVEKALSLGVTKLVERWISVSGVADDPNNYLFCRVRKNGVAAPSATSQLSTRALEGIFEATHRLIYGAKDDSGQRYLAWSGHSARVGAARDMARAGVSIPEIMQAGGWTNVNIVMNYIRNLDSETGAMVRLLEDGD
modifications: Synthetic exemplary nucleic acid sequence for NLS-pMag-CreC
With B1 the “Cre-loxP recombination by one split-Cre half alone versus Reporter” value [1] was “no significant difference”.

B2: myc-α-CD38 Receptor: c-myc-tagged α-CD38 anchoring receptor expressed in Jurkat T cells, SEQ ID NO: 8 (protein)
chain: MEFGLSWLFLVAILKGVQCSEQKLISEEDLDIQLTQSSSSFSVSLGDRVTITCKASEDIYNRLAWYQQKPGNAPRLLISGATSLETGVPSRFSGSGSGKDYTLSITSLQTEDVATYYCQQYWSTPTFGGGTKLEIKRADAAPTVSIFPPSGGGGSGGGGSGGGGSGGGGSQVQLKQSGPSLVQPSQRLSITCTVSGFSLISYGVHWVRQSPGKGLEWLGVIWRGGSTDYNAAFMSRLSITKDNSKSQVFFKMNSLQADDTAIYFCAKTLITTGYAMDYWGQGTSVTVSSAAAIEVMYPPPYLDNEKSNGTIIHVKGKHLCPSPLFPGPSKPFWVLVVVGGVLACYSLLVTVAFIIFWVRSKRS
modifications: Synthetic exemplary nucleic acid sequence for exemplary myc-alpha-CD38-Receptor
B2 was tested, and the “T cell activation upon binding to Target cells” value [2] was “not activated”.

Reference: patent US20230036060A1, “DUAL-CONTROLLED DRUG AND PHOTOACTIVATABLE SYSTEM FOR SPATIOTEMPORAL CONTROL OF CELL THERAPY” (THE REGENTS OF THE UNIVERSITY OF CALIFORNIA, priority 2019, published 2023)
